{"source": "patent US20050069907A1", "about": "“Methods for using double-mutant RNA polymerases with reduced discrimination between non-canonical and canonical nucleoside triphosphates” (priority 2002, published 2005)", "system": "supercoiled pT75", "experiment": "Relative transcription activity with different rNTP/dNTP mixes", "assay_type": "biochemical", "procedure": "Transcription reactions: Transcription reactions were carried out in 40 mM Tris-Cl pH 8.0, 15 mM MgCl2, and 5 mM DTT or 20 mM Manganese Citrate pH 8.0, 5 mM DTT at 37° C. Template, polymerase, and NTP concentrations were as indicated in the legends to the figures and tables. Relative activity determinations were made by taking 4 μl aliquots of reactions at 5, 10, and 20 minute time points and spotting on to DE81 filter paper. Unincorporated nucleotides were separated from incorporated nucleotides by washing the filter paper with 0.5 M KH2PO4 pH 7.0 and retained radioactive nucleotide was quantitated with a Molecular Dynamics phosphorimager. To evaluate rNTP/dNTP selectivity, reactions were run with 4 rNTPs and pT75 as template and α-P^32 rNTPs or α-P^32 dNTPs were used to label the transcripts. The relative rate of incorporation of an rNTP vs. its cognate dNTP was determined from the relative percentages of labeled rNTP vs. dNTP incorporated into DE81 retainable RNA at 5, 10, and 20 minute time points. Apparent miscoding frequencies were determined similarly, though in this instance the template was a single-stranded homopolymer and the reaction contained the complementary unlabeled rNTP, and complementary α-P^32 rNTP or one of the 3 non-complementary α-P^32 rNTPs. The relative percentages of labeled complementary vs. non-complementary rNTPs incorporated at 5, 10 and 20 minute time points gave an apparent miscoding rate. The rNTP/dNTP selectivity assay was used to test the following T7 RNAP mutants for effects on substrate discrimination: D537S, D537E, S539A, R5S1S, D552S, R627S, K631S, L637A, Y639S, Y639F, Y639A, G640A, F644A, G645A, Q649S, […], H811S, H811A, D812A, D812E, D812S, D812N, D879E+ΔF882+ΔA883, D879E+A881T+ΔA883, D879E+F884+A885, D879E+F882Y, D879E+ΔA883, D879E+F882W, D879E.\nRelative activity of the W.T. and Y639F polymerases with different NTP combinations: The relative activities of the Y639F and W.T. polymerases with supercoiled pT75 as a template and various combinations of rNTPs/dNTPs were measured in both Mg^2+ and Mn^2+ buffers (see, Table II,).", "key": {"[1]": {"conditions": "1 rNTP, dCTP, dATP, dGTP, with rGMP, Mg^2+"}, "[2]": {"conditions": "1 rNTP, dCTP, dATP, dGTP, with rGMP, Mn^2+"}, "[3]": {"conditions": "1 rNTP, dCTP, dATP, dTTP, Mg^2+"}, "[4]": {"conditions": "1 rNTP, dCTP, dATP, dTTP, Mn^2+"}, "[5]": {"conditions": "1 rNTP, dCTP, dATP, dUTP, Mg^2+"}, "[6]": {"conditions": "1 rNTP, dCTP, dATP, dUTP, Mn^2+"}, "[7]": {"conditions": "1 rNTP, dTTP, dATP, dGTP, with rGMP, Mg^2+"}, "[8]": {"conditions": "1 rNTP, dTTP, dATP, dGTP, with rGMP, Mn^2+"}, "[9]": {"conditions": "1 rNTP, dTTP, dCTP, dGTP, with rGMP, Mg^2+"}, "[10]": {"conditions": "1 rNTP, dTTP, dCTP, dGTP, with rGMP, Mn^2+"}, "[11]": {"conditions": "2 rNTPs, dATP, dGTP, rGMP, Mg^2+"}, "[12]": {"conditions": "2 rNTPs, dATP, dGTP, rGMP, Mn^2+"}, "[13]": {"conditions": "2 rNTPs, dCTP, dGTP, rGMP, Mg^2+"}, "[14]": {"conditions": "2 rNTPs, dCTP, dGTP, rGMP, Mn^2+"}, "[15]": {"conditions": "2 rNTPs, dTTP, dGTP, rGMP, Mg^2+"}, "[16]": {"conditions": "2 rNTPs, dTTP, dGTP, rGMP, Mn^2+"}}, "data": [{"substance": "W.T.: wild-type T7 RNA polymerase [reference compound]", "values": [{"measurement": "Relative activity", "setting": "[1]", "result": "<.5"}, {"measurement": "Relative activity", "setting": "[2]", "result": "<.5"}, {"measurement": "Relative activity", "setting": "[3]", "result": "<.5"}, {"measurement": "Relative activity", "setting": "[4]", "result": "<.5"}, {"measurement": "Relative activity", "setting": "[5]", "result": "<.5"}, {"measurement": "Relative activity", "setting": "[6]", "result": "<.5"}, {"measurement": "Relative activity", "setting": "[7]", "result": "<.5"}, {"measurement": "Relative activity", "setting": "[8]", "result": "<.5"}, {"measurement": "Relative activity", "setting": "[9]", "result": "<.5"}, {"measurement": "Relative activity", "setting": "[10]", "result": "<.5"}, {"measurement": "Relative activity", "setting": "[11]", "result": "<.5"}, {"measurement": "Relative activity", "setting": "[12]", "result": "<.5"}, {"measurement": "Relative activity", "setting": "2 rNTPs, dATP, dTTP, Mg^2+", "result": "<.5"}, {"measurement": "Relative activity", "setting": "2 rNTPs, dATP, dTTP, Mn^2+", "result": "<.5"}, {"measurement": "Relative activity", "setting": "2 rNTPs, dCTP, dATP, Mg^2+", "result": "<.5"}, {"measurement": "Relative activity", "setting": "2 rNTPs, dCTP, dATP, Mn^2+", "result": ".5-.9"}, {"measurement": "Relative activity", "setting": "[13]", "result": "<.5"}, {"measurement": "Relative activity", "setting": "[14]", "result": "<.5"}, {"measurement": "Relative activity", "setting": "2 rNTPs, dCTP, dTTP, Mg^2+", "result": 2}, {"measurement": "Relative activity", "setting": "2 rNTPs, dCTP, dTTP, Mn^2+", "result": "5-7"}, {"measurement": "Relative activity", "setting": "2 rNTPs, dCTP, dUTP, Mg^2+", "result": "2-6"}, {"measurement": "Relative activity", "setting": "2 rNTPs, dCTP, dUTP, Mn^2+", "result": 3}, {"measurement": "Relative activity", "setting": "[15]", "result": "<.5"}, {"measurement": "Relative activity", "setting": "[16]", "result": "<.5"}, {"measurement": "Relative activity", "setting": "3 rNTPs, dATP, Mg^2+", "result": "1-2"}, {"measurement": "Relative activity", "setting": "3 rNTPs, dATP, Mn^2+", "result": "1-2"}, {"measurement": "Relative activity", "setting": "3 rNTPs, dCTP, Mg^2+", "result": "4-9"}, {"measurement": "Relative activity", "setting": "3 rNTPs, dCTP, Mn^2+", "result": 15}, {"measurement": "Relative activity", "setting": "3 rNTPs, dGTP, rGMP, Mg^2+", "result": "<.5"}, {"measurement": "Relative activity", "setting": "3 rNTPs, dGTP, rGMP, Mn^2+", "result": "1-3"}, {"measurement": "Relative activity", "setting": "3 rNTPs, dGTP, Mg^2+", "result": "<.5"}, {"measurement": "Relative activity", "setting": "3 rNTPs, dGTP, Mn^2+", "result": ".5-2"}, {"measurement": "Relative activity", "setting": "3 rNTPs, dTTP, Mg^2+", "result": "11-13"}, {"measurement": "Relative activity", "setting": "3 rNTPs, dTTP, Mn^2+", "result": "7-8"}, {"measurement": "Relative activity", "setting": "3 rNTPs, dUTP, Mg^2+", "result": "9-11"}, {"measurement": "Relative activity", "setting": "3 rNTPs, dUTP, Mn^2+", "result": "10-11"}, {"measurement": "Relative activity", "setting": "4 dNTPs, rGMP, Mg^2+", "result": "<.5"}, {"measurement": "Relative activity", "setting": "4 dNTPs, rGMP, Mn^2+", "result": "<.5"}, {"measurement": "Relative activity", "setting": "4 rNTPs, Mg^2+", "result": 200}, {"measurement": "Relative activity", "setting": "4 rNTPs, Mn^2+", "result": "21-23"}]}, {"substance": "Y639F: T7 RNAP with wild-type tyrosine at position 639 substituted by phenylalanine", "values": [{"measurement": "Relative activity", "setting": "[1]", "result": "3-5"}, {"measurement": "Relative activity", "setting": "[2]", "result": "1-2"}, {"measurement": "Relative activity", "setting": "[3]", "result": "12-14"}, {"measurement": "Relative activity", "setting": "[4]", "result": ".7-2"}, {"measurement": "Relative activity", "setting": "[5]", "result": "10-11"}, {"measurement": "Relative activity", "setting": "[6]", "result": "2-3"}, {"measurement": "Relative activity", "setting": "[7]", "result": 11}, {"measurement": "Relative activity", "setting": "[8]", "result": "1.5-2"}, {"measurement": "Relative activity", "setting": "[9]", "result": "10-13"}, {"measurement": "Relative activity", "setting": "[10]", "result": "2-4"}, {"measurement": "Relative activity", "setting": "[11]", "result": "5-6"}, {"measurement": "Relative activity", "setting": "[12]", "result": "1-1.5"}, {"measurement": "Relative activity", "setting": "2 rNTPs, dATP, dTTP, Mg^2+", "result": "11-14"}, {"measurement": "Relative activity", "setting": "2 rNTPs, dATP, dTTP, Mn^2+", "result": "3-4"}, {"measurement": "Relative activity", "setting": "2 rNTPs, dCTP, dATP, Mg^2+", "result": "20-29"}, {"measurement": "Relative activity", "setting": "2 rNTPs, dCTP, dATP, Mn^2+", "result": "4-7"}, {"measurement": "Relative activity", "setting": "[13]", "result": "11-14"}, {"measurement": "Relative activity", "setting": "[14]", "result": "2-5"}, {"measurement": "Relative activity", "setting": "2 rNTPs, dCTP, dTTP, Mg^2+", "result": 30}, {"measurement": "Relative activity", "setting": "2 rNTPs, dCTP, dTTP, Mn^2+", "result": 5}, {"measurement": "Relative activity", "setting": "2 rNTPs, dCTP, dUTP, Mg^2+", "result": "27-29"}, {"measurement": "Relative activity", "setting": "2 rNTPs, dCTP, dUTP, Mn^2+", "result": "4-7"}, {"measurement": "Relative activity", "setting": "[15]", "result": "13-15"}, {"measurement": "Relative activity", "setting": "[16]", "result": "3-6"}, {"measurement": "Relative activity", "setting": "3 rNTPs, dATP, Mg^2+", "result": 73}, {"measurement": "Relative activity", "setting": "3 rNTPs, dATP, Mn^2+", "result": "2-3"}, {"measurement": "Relative activity", "setting": "3 rNTPs, dCTP, Mg^2+", "result": 86}, {"measurement": "Relative activity", "setting": "3 rNTPs, dCTP, Mn^2+", "result": "7-11"}, {"measurement": "Relative activity", "setting": "3 rNTPs, dGTP, rGMP, Mg^2+", "result": "95-109"}, {"measurement": "Relative activity", "setting": "3 rNTPs, dGTP, rGMP, Mn^2+", "result": "1.4-2.5"}, {"measurement": "Relative activity", "setting": "3 rNTPs, dGTP, Mg^2+", "result": "43-63"}, {"measurement": "Relative activity", "setting": "3 rNTPs, dGTP, Mn^2+", "result": 3}, {"measurement": "Relative activity", "setting": "3 rNTPs, dTTP, Mg^2+", "result": "90-96"}, {"measurement": "Relative activity", "setting": "3 rNTPs, dTTP, Mn^2+", "result": 4}, {"measurement": "Relative activity", "setting": "3 rNTPs, dUTP, Mg^2+", "result": "82-91"}, {"measurement": "Relative activity", "setting": "3 rNTPs, dUTP, Mn^2+", "result": "7-8"}, {"measurement": "Relative activity", "setting": "4 dNTPs, rGMP, Mg^2+", "result": "<.5"}, {"measurement": "Relative activity", "setting": "4 dNTPs, rGMP, Mn^2+", "result": ".5"}, {"measurement": "Relative activity", "setting": "4 rNTPs, Mg^2+", "result": 200}, {"measurement": "Relative activity", "setting": "4 rNTPs, Mn^2+", "result": 9}]}]}
